T1: human ALPI (intestinal alkaline phosphatase) expressed on the surface of CHO cells (human, UniProt P09923 20-503)
T1 sequence (looked up): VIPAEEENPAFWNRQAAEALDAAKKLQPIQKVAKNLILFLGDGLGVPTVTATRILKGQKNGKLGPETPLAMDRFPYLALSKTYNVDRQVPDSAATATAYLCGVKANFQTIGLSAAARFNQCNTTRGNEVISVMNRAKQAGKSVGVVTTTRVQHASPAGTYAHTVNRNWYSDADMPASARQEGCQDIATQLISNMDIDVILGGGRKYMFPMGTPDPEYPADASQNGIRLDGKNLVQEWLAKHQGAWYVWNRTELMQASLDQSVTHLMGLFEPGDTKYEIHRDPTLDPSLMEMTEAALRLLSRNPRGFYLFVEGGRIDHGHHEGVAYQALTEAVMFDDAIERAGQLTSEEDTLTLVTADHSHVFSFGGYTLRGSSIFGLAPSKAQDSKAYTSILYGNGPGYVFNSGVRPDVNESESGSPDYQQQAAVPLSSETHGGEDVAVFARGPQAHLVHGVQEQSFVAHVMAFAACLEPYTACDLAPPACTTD

T2: human ALPL (tissue non-specific alkaline phosphatase) expressed on the surface of CHO cells (human, UniProt P05186 18-501)
T2 sequence (looked up): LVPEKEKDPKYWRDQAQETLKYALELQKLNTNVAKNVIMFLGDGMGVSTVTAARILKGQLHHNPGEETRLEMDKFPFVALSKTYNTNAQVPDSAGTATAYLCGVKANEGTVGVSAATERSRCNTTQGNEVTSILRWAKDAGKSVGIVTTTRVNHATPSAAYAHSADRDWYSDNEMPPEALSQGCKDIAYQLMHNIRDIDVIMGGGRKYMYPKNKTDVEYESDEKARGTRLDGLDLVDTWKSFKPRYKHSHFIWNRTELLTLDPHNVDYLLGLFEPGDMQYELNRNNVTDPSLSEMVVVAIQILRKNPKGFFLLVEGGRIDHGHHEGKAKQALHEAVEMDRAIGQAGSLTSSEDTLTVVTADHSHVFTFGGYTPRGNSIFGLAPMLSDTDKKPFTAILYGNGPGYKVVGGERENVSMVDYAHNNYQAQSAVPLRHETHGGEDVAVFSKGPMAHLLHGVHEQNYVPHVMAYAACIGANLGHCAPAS


Tests used:
[1] = target: T3, human ALPPL2 (alkaline phosphatase, germ cell type) expressed on the surface of CHO cells (human, UniProt P10696 20-503); experiment: cell-based or functional assay
[2] = target: T1, human ALPI (intestinal alkaline …); experiment: cell-based or functional assay
[3] = target: T2, human ALPL (tissue non-specific …); experiment: cell-based or functional assay
[4] = target: T2, human ALPL (tissue non-specific …); experiment: flow cytometry, CHO-ALPL cells
[5] = target: T1, human ALPI (intestinal alkaline …); experiment: flow cytometry on CHO-ALPI cells
[6] = target: T4, human ALPP (alkaline phosphatase, placental type) expressed on the surface of CHO cells (human, UniProt P05187 23-506); experiment: flow cytometry on CHO-ALPP cells, apparent KD (KDapp)
T4 construct: also called CHO-ALPP; hALPP
Experimental: (§1) Biparatopic VHH-hFc drug conjugates were assessed for human ALPP, ALPPL2, ALPI and ALPL cell-surface binding by flow cytometry. Binders were screened on CHO cells stably expressing human ALPP, ALPPL2, ALPI or ALPL.
(§2) Cell surface binding of test agents to hALPP isoforms was characterized in four CHO-ALPP isoform transfectant cell lines (CHO-ALPP, CHO-ALPPL2, CHO-ALPI and CHO-ALPL) and the resulting KDapp values determined. Adherent cells were detached from tissue culture flasks by incubating with 0.1% EDTA/PBS solution at 37° C. for […] or until cells detached easily. Cells were re-suspended in ice-cold PBS/2% FCS in 15 ml tubes and centrifuged at 1700 rpm for 5 mins at 4° C. Supernatant was removed and the cell pellet re-suspended in PBS/2% FCS. […] Cells were incubated with 100 μl of test agents at a range of concentrations, plus controls for 1 hr on ice. The sample plate was centrifuged at 1700 rpm for 5 mins at 4° C. The supernatant was removed, and a wash performed by re-suspending the cell pellets in 0.25 mL of ice-cold PBS/2% FCS using a multichannel pipette. Samples were again centrifuged at 1700 rpm for 5 min at 4° C. Supernatant was removed and two further washes performed as described. After the final wash and centrifugation step, excess liquid was removed by blotting the plate on tissue paper. Binding of VHH-hFc agents was determined by adding 100 μl of Fitc-anti-human Ab (ThermoFisher) and incubating for 30 mins on ice in the dark. Wash steps were performed as described previously. All cell pellets were finally re-suspended in 0.28 ml of ice-cold PBS/2% FCS and left on ice in the dark prior to analysis on a Merck-Millipore Guava EasyCyte HT or Thermo Fisher Attune N×T flow cytometer.

[7] = target: T3, human ALPPL2 (alkaline phosphatase, …); experiment: flow cytometry on CHO-ALPPL2 cells, apparent KD (KDapp)
Experimental: as §1, §2

T4 sequence (P05187 23-506 limits assumed): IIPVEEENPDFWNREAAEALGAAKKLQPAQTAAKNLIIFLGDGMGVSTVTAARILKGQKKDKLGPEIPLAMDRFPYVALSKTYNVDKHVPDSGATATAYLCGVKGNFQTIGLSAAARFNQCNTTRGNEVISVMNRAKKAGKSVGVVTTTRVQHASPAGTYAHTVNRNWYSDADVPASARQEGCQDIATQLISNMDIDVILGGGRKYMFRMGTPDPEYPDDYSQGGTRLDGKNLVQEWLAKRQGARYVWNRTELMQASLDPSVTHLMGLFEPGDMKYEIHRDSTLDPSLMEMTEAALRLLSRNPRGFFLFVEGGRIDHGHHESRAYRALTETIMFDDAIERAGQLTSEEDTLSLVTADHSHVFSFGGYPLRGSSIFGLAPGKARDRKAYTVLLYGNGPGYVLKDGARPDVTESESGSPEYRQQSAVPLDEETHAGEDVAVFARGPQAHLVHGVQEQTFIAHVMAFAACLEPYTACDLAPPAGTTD
T3 sequence (P10696 20-503): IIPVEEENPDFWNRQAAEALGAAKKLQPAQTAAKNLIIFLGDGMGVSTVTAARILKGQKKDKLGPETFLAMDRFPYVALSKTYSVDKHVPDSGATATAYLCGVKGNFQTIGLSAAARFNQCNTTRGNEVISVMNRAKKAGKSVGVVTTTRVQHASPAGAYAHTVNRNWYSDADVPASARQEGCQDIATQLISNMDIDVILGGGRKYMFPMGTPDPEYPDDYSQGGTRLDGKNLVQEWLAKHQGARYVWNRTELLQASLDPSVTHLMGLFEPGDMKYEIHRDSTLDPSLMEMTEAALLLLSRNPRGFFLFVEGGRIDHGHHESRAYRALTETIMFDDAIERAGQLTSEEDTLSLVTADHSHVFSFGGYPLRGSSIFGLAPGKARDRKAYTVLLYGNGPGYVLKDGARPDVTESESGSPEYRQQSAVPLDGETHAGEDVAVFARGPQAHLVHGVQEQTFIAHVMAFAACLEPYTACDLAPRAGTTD

MFI on CHO-ALPI cells at 350 nM as percent of MFI on CHO-ALPP cells (KDapp not-determinable) [5] [%]	Kd [6] [nM]	Kd [7] [nM]	Binder	IC50 at 96 h, cell-killing of CHO-ALPPL2 cells [1] [nM]	IC50 at 96 h, cell-killing of CHO-ALPI cells (estimated from data extrapolation) [2] [nM]	IC50 at 96 h, cell-killing of CHO-ALPL cells (estimated from data extrapolation) [3] [nM]	binding result [4]	IC50 at 96 h, cell-killing of CHO-ALPI cells [2] [nM]	IC50 at 96 h, cell-killing of CHO-ALPL cells [3] [nM]
≤ 1	11	5.6	A06 E06-hFc (S239/442C T366Y/Y407T), [G4S]1 linker, MC-vc-PAB-MMAE conjugate, #710 (Fc fusion, DAR 4, MC-vc-PAB-MMAE on Cys of S239C and S442C (EU numbering), Biparatopic knob-into-hole VHH-hFc heterodimer, DAR 4; The assignment of T366Y to the first named VHH and Y407T to the second follows the order of the name; No paragraph spells out this pair; also called A06-E06-hFc-vcPAB-MMAE; A06-E06 hFc-vc-MMAE) chain 1: QVHLVESGGGLVQAGGSLRLSCAASGRTFLSMGWFRQAPGKEREFVAAISWTGGSTGYADSVKGRFTISRESDKETMYLQMNSLKPEDTAVYYCAARGDVYYGGDDATRYKYWGQGTQVTVSSGGGGSEPKSSDKTHTCPPCPAPELLGGPCVFLFPPKPKDTLMISRTPEVTCVVVDVSHEDPEVKFNWYVDGVEVHNAKTKPREEQYNSTYRVVSVLTVLHQDWLNGKEYKCKVSNKALPAPIEKTISKAKGQPREPQVYTLPPSRDELTKNQVSLYCLVKGFYPSDIAVEWESNGQPENNYKTTPPVLDSDGSFFLYSKLTVDKSRWQQGNVFSCSVMHEALHNHYTQKSLCLSPGK chain 2: QVHLVESGGGLVQAGGSLRLSCAASRRSFSEYAMGWFRQAPGKEREFVAAIGWSGVIEYADSVKGRFTISRDNAKDTVYLQMNSLKPEDTAVYYCAAGLGIRVVSQTPAYWGQGTQVTVSSGGGGSEPKSSDKTHTCPPCPAPELLGGPCVFLFPPKPKDTLMISRTPEVTCVVVDVSHEDPEVKFNWYVDGVEVHNAKTKPREEQYNSTYRVVSVLTVLHQDWLNGKEYKCKVSNKALPAPIEKTISKAKGQPREPQVYTLPPSRDELTKNQVSLTCLVKGFYPSDIAVEWESNGQPENNYKTTPPVLDSDGSFFLTSKLTVDKSRWQQGNVFSCSVMHEALHNHYTQKSLCLSPGK	18.1	~846	~699	no binding (tested: 350 nM (highest concentration))	–	–
≤ 1	8.5	4.2	A06 E06-hFc (S239/442C T366Y/Y407T), [G4S]3 linker, MC-vc-PAB-MMAE conjugate, #639 (Fc fusion, DAR 4, MC-vc-PAB-MMAE on Cys of S239C and S442C (EU numbering), Biparatopic knob-into-hole VHH-hFc heterodimer, DAR 4; The assignment of T366Y to the first named VHH and Y407T to the second follows the order of the name; No paragraph spells out this pair; also called A06-E06 hFc-vcPAB-MMAE; A06-E06hFc-vc-MMAE) chain 1: QVHLVESGGGLVQAGGSLRLSCAASGRTFLSMGWFRQAPGKEREFVAAISWTGGSTGYADSVKGRFTISRESDKETMYLQMNSLKPEDTAVYYCAARGDVYYGGDDATRYKYWGQGTQVTVSSGGGGSGGGGSGGGGSEPKSSDKTHTCPPCPAPELLGGPCVFLFPPKPKDTLMISRTPEVTCVVVDVSHEDPEVKFNWYVDGVEVHNAKTKPREEQYNSTYRVVSVLTVLHQDWLNGKEYKCKVSNKALPAPIEKTISKAKGQPREPQVYTLPPSRDELTKNQVSLYCLVKGFYPSDIAVEWESNGQPENNYKTTPPVLDSDGSFFLYSKLTVDKSRWQQGNVFSCSVMHEALHNHYTQKSLCLSPGK chain 2: QVHLVESGGGLVQAGGSLRLSCAASRRSFSEYAMGWFRQAPGKEREFVAAIGWSGVIEYADSVKGRFTISRDNAKDTVYLQMNSLKPEDTAVYYCAAGLGIRVVSQTPAYWGQGTQVTVSSGGGGSGGGGSGGGGSEPKSSDKTHTCPPCPAPELLGGPCVFLFPPKPKDTLMISRTPEVTCVVVDVSHEDPEVKFNWYVDGVEVHNAKTKPREEQYNSTYRVVSVLTVLHQDWLNGKEYKCKVSNKALPAPIEKTISKAKGQPREPQVYTLPPSRDELTKNQVSLTCLVKGFYPSDIAVEWESNGQPENNYKTTPPVLDSDGSFFLTSKLTVDKSRWQQGNVFSCSVMHEALHNHYTQKSLCLSPGK	8.6	–	–	no binding (tested: 350 nM (highest concentration))	> 1000	> 1000
≤ 1	8.5	3.7	A06 E10-hFc (S239/442C T366Y/Y407T), [G4S]3 linker, MC-vc-PAB-MMAE conjugate, #664 (Fc fusion, DAR 4, MC-vc-PAB-MMAE on Cys of S239C and S442C (EU numbering), Biparatopic knob-into-hole VHH-hFc heterodimer, DAR 4; The assignment of T366Y to the first named VHH and Y407T to the second follows the order of the name; No paragraph spells out this pair; also called A06-E10 hFc-vcPAB-MMAE; A06-E10hFc-vc-MMAE) chain 1: QVHLVESGGGLVQAGGSLRLSCAASGRTFLSMGWFRQAPGKEREFVAAISWTGGSTGYADSVKGRFTISRESDKETMYLQMNSLKPEDTAVYYCAARGDVYYGGDDATRYKYWGQGTQVTVSSGGGGSGGGGSGGGGSEPKSSDKTHTCPPCPAPELLGGPCVFLFPPKPKDTLMISRTPEVTCVVVDVSHEDPEVKFNWYVDGVEVHNAKTKPREEQYNSTYRVVSVLTVLHQDWLNGKEYKCKVSNKALPAPIEKTISKAKGQPREPQVYTLPPSRDELTKNQVSLYCLVKGFYPSDIAVEWESNGQPENNYKTTPPVLDSDGSFFLYSKLTVDKSRWQQGNVFSCSVMHEALHNHYTQKSLCLSPGK chain 2: QVQLVESGGGLVQAGGSLRLSCAVSGRALSDYNIGWFRQAPGKEREFVARKTWDGSSTRYDDSVKGRFTVSIEDAKNTAYLQMSSLKTEDTAVYYCAAGRYSRARGWEYDYWGQGTQVTVSSGGGGSGGGGSGGGGSEPKSSDKTHTCPPCPAPELLGGPCVFLFPPKPKDTLMISRTPEVTCVVVDVSHEDPEVKFNWYVDGVEVHNAKTKPREEQYNSTYRVVSVLTVLHQDWLNGKEYKCKVSNKALPAPIEKTISKAKGQPREPQVYTLPPSRDELTKNQVSLTCLVKGFYPSDIAVEWESNGQPENNYKTTPPVLDSDGSFFLTSKLTVDKSRWQQGNVFSCSVMHEALHNHYTQKSLCLSPGK	7.3	–	–	no binding (tested: 350 nM (highest concentration))	> 1000	> 1000
≤ 1	9.8	4.9	A06 F05-hFc (S239/442C T366Y/Y407T), [G4S]3 linker, MC-vc-PAB-MMAE conjugate, #665 (Fc fusion, DAR 4, MC-vc-PAB-MMAE on Cys of S239C and S442C (EU numbering), Biparatopic knob-into-hole VHH-hFc heterodimer, DAR 4; also called A06-F05 hFc-vcPAB-MMAE; A06-F05 hFc-vc-MMAE) chain 1: QVHLVESGGGLVQAGGSLRLSCAASGRTFLSMGWFRQAPGKEREFVAAISWTGGSTGYADSVKGRFTISRESDKETMYLQMNSLKPEDTAVYYCAARGDVYYGGDDATRYKYWGQGTQVTVSSGGGGSGGGGSGGGGSEPKSSDKTHTCPPCPAPELLGGPCVFLFPPKPKDTLMISRTPEVTCVVVDVSHEDPEVKFNWYVDGVEVHNAKTKPREEQYNSTYRVVSVLTVLHQDWLNGKEYKCKVSNKALPAPIEKTISKAKGQPREPQVYTLPPSRDELTKNQVSLYCLVKGFYPSDIAVEWESNGQPENNYKTTPPVLDSDGSFFLYSKLTVDKSRWQQGNVFSCSVMHEALHNHYTQKSLCLSPGK chain 2: QVQLVESGGGLVQAGGSLRLSCAASGRAFGDYNIGWFRQAPGKEREFVARRTWDGSSTRYDDSVKGRFTVSIDNAKNTAYLQMNSLKTEDTAVYYCAAGRYSRVRGWEYDYWGQGTQVTVSSGGGGSGGGGSGGGGSEPKSSDKTHTCPPCPAPELLGGPCVFLFPPKPKDTLMISRTPEVTCVVVDVSHEDPEVKFNWYVDGVEVHNAKTKPREEQYNSTYRVVSVLTVLHQDWLNGKEYKCKVSNKALPAPIEKTISKAKGQPREPQVYTLPPSRDELTKNQVSLTCLVKGFYPSDIAVEWESNGQPENNYKTTPPVLDSDGSFFLTSKLTVDKSRWQQGNVFSCSVMHEALHNHYTQKSLCLSPGK	7.9	–	–	no binding (tested: 350 nM (highest concentration))	> 1000	> 1000
